Residue numbers refer to the chain shown, from its start. In names and notes the source's numbering stands.
B1: target 3 G4A,U8C (mixed)
RNA 1: CACCCGUGCAAAAUUGCAGGGGUCUAAAACGACCUGAAUAUUUCAGAUCAAA
RNA 2: GGGAAUGGAUCCACAUCUACGAAUUCGUUUUUGAUCUGAAAUACUCAAGUCUGCAGAUCGGAAGAGCACACGU
B2: target 3 insA 3' of 8,insC 3' of 8 (mixed)
RNA 1: B1 RNA 1
RNA 2: GGGAAUGGAUCCACAUCUACGAAUUCGUUUUUGAUCUGAAAUAUACUCAGGUCUGCAGAUCGGAAGAGCACACGU
B3: target 3 insA 3' of 3,insG 3' of 2 (mixed)
RNA 1: B1 RNA 1
RNA 2: B2 RNA 2 with A45U, U47A, C48G, A49G, G50A, G51U, U52G
B4: target 3 A12U,A18G (mixed)
RNA 1: B1 RNA 1
RNA 2: B1 RNA 2 with A34G, A40U, C44U, A48G
B5: target 3 insG 3' of 8,insC 3' of 3 (mixed)
RNA 1: B1 RNA 1
RNA 2: B2 RNA 2 with A45G, C46U, U47C, C48A, A49G, G51C
B6: target 3 insA 3' of 6,insU 3' of 5 (mixed)
RNA 1: B1 RNA 1
RNA 2: B2 RNA 2 with A45U, U47A, C48A, A49U
B7: target 3 insA 3' of 21,insA 3' of 6 (mixed)
RNA 1: B1 RNA 1
RNA 2: GGGAAUGGAUCCACAUCUACGAAUUCGUUUUAUGAUCUGAAAUAUUCAAGGUCUGCAGAUCGGAAGAGCACACGU
B8: target 3 insC 3' of 5,insG 3' of 2 (mixed)
RNA 1: B1 RNA 1
RNA 2: B2 RNA 2 with A45U, U47A, A49G, G51U, U52G
B9: target 1 A9C,U11G (mixed)
RNA 1: CACCCGUGCAAAAAUGCAGGGGUCUAAAACUGAGCGGAUAACCUCUCUAUGG
RNA 2: GGGAAUGGAUCCACAUCUACGAAUUCGUACCAUAGAGAGGGUCUCCGCUCACCGAGAUCGGAAGAGCACACGU
B10: target 3 A5G,A18G (mixed)
RNA 1: B1 RNA 1
RNA 2: B1 RNA 2 with A34G, C44U, A47G, A48G
B11: target 3 A12G,U22G (mixed)
RNA 1: B1 RNA 1
RNA 2: B1 RNA 2 with U30G, A40G, C44U, A48G
B12: target 3 G3U,A5G (mixed)
RNA 1: B1 RNA 1
RNA 2: B1 RNA 2 with C44U, A47G, A48G, G49U
B13: target 3 U2C,A5U (mixed)
RNA 1: B1 RNA 1
RNA 2: B1 RNA 2 with C44U, A47U, A48G, U50C
B14: target 3 insA 3' of 2,insA 3' of 1 (mixed)
RNA 1: B1 RNA 1
RNA 2: B2 RNA 2 with A45U, U47A, C48G, A49G, G50U, G51A, U52C, C53A
B15: target 3 insG 3' of 8,insC 3' of 8 (mixed)
RNA 1: B1 RNA 1
RNA 2: B2 RNA 2 with A45G
B16: target 3 insC 3' of 22,insC 3' of 3 (mixed)
RNA 1: B1 RNA 1
RNA 2: B7 RNA 2 with U31C, A32U, A49G, G51C
B17: target 3 insU 3' of 5,insA 3' of 3 (mixed)
RNA 1: B1 RNA 1
RNA 2: B2 RNA 2 with A45U, U47A, C48U, A49G, G51A
B18: target 3 insC 3' of 3,insG 3' of 2 (mixed)
RNA 1: B1 RNA 1
RNA 2: B2 RNA 2 with A45U, U47A, C48G, A49G, G50C, G51U, U52G
B19: target 3 U7A,A13G (mixed)
RNA 1: B1 RNA 1
RNA 2: B1 RNA 2 with A39G, C44U, U45A, A48G
B20: target 1 U3G,C6U (mixed)
RNA 1: B9 RNA 1
RNA 2: B9 RNA 2 with G41U, C43A, C46U, U49G
B21: target 3 insA 3' of 22,insA 3' of 7 (mixed)
RNA 1: B1 RNA 1
RNA 2: B7 RNA 2 with U31A, A32U, C47A, A48C
B22: target 3 insA 3' of 14,insU 3' of 3 (mixed)
RNA 1: B1 RNA 1
RNA 2: B2 RNA 2 with U42A, A43U, U44A, A45U, C46U, U47C, C48A, A49G, G51U
B23: target 3 C6U,U10C (mixed)
RNA 1: B1 RNA 1
RNA 2: B1 RNA 2 with U42C, C44U, C46U, A48G
B24: target 3 insG 3' of 11,insC 3' of 3 (mixed)
RNA 1: B1 RNA 1
RNA 2: B2 RNA 2 with U42G, A43U, U44A, A45U, C46U, U47C, C48A, A49G, G51C
B25: target 3 insC 3' of 10,insC 3' of 3 (mixed)
RNA 1: B1 RNA 1
RNA 2: B2 RNA 2 with A43C, U44A, A45U, C46U, U47C, C48A, A49G, G51C
B26: target 3 A9G,U22G (mixed)
RNA 1: B1 RNA 1
RNA 2: B1 RNA 2 with U30G, A43G, C44U, A48G
B27: target 3 A5G,C6U (mixed)
RNA 1: B1 RNA 1
RNA 2: B1 RNA 2 with C44U, C46U, A47G, A48G
B28: target 3 G3A,C6A (mixed)
RNA 1: B1 RNA 1
RNA 2: B1 RNA 2 with C44U, C46A, A48G, G49A
B29: target 3 insU 3' of 22,insU 3' of 16 (mixed)
RNA 1: B1 RNA 1
RNA 2: B7 RNA 2 with A32U, G39U, A40G, U43A, A44U, U45A, C47U, A48C
B30: target 3 insC 3' of 3,insA 3' of 3 (mixed)
RNA 1: B1 RNA 1
RNA 2: B2 RNA 2 with A45U, U47A, C48G, A49G, G50C, G51A
B31: target 1 insG 3' of 19,insU 3' of 13 (mixed)
RNA 1: B9 RNA 1
RNA 2: GGGAAUGGAUCCACAUCUACGAAUUCGUACCAUGAGAGAGUGUUAUCCGCUCACCGAGAUCGGAAGAGCACACGU
B32: target 3 G4C,A5U (mixed)
RNA 1: B1 RNA 1
RNA 2: B1 RNA 2 with C44U, A47U, A48C
B33: target 3 insA 3' of 22,insG 3' of 22 (mixed)
RNA 1: B1 RNA 1
RNA 2: GGGAAUGGAUCCACAUCUACGAAUUCGUUUAGUUGAUCUGAAAUAUUCAGGUCUGCAGAUCGGAAGAGCACACGU

Molecular target: T1, EsCas13d, nuclease-dead (Eubacterium siraeum, UniProt B0MS50, R295A;H300A;R849A;H854A)
T1 sequence: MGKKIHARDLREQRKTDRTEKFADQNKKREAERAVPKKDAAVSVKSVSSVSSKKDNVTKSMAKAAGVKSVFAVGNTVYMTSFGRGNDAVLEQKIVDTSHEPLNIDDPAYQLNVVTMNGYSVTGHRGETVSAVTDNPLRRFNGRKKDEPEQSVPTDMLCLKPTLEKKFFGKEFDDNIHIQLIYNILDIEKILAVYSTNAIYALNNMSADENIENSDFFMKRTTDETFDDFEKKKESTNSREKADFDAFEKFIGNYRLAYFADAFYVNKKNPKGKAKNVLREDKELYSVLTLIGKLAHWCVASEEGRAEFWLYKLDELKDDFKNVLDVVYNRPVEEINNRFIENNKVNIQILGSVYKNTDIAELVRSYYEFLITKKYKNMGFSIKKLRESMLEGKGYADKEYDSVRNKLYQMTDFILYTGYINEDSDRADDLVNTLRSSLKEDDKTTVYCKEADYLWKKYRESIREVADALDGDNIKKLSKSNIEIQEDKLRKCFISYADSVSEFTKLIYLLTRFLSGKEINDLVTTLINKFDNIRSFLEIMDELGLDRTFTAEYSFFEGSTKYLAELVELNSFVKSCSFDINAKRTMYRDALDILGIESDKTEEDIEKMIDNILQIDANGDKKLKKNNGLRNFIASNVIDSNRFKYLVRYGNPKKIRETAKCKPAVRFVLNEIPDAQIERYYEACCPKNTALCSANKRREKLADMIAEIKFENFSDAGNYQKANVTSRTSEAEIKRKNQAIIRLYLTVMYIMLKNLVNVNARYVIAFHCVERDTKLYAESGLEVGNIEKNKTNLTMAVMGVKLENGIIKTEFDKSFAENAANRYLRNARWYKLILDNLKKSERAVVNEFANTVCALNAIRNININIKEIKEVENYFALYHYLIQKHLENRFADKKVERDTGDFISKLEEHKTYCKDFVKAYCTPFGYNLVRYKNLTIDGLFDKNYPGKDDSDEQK
Experiment: crRNA (strand 1, pre-loaded); Mg2+; 40 mM Tris-HCl pH 7.5, 150 mM NaCl, 6 mM MgCl2, 1 mM DTT, 0.1% Tween-20, 0.2 mg/ml BSA; 25 C; 10 min per concentration, then washed
Conditions: tags: His6-TwinStrep-SUMO cleaved; N-terminal SNAP kept (SNAP-Surface 488); label: 3' end held by stalled T7 RNA polymerase

Q: With B1 as the binder, how does the Kd read?
A: Its Kd is 52.8 ± 5.6 nM.

Q: How did the Kd turn out when B2 was run?
A: The Kd was 63 ± 10 nM.

Q: B3 was tested. Which Kd did it give?
A: Its Kd is 24.6 ± 3.4 nM.

Q: B4 was tested. Which Kd did it give?
A: The Kd was 97 ± 34 nM.

Q: For B5, which Kd is on record?
A: The Kd was 38.8 ± 5.05 nM.

Q: With B6 as the binder, how does the Kd read?
A: The Kd was 4 ± 0.27 nM.

Q: B7 was tested. Which Kd did it give?
A: The Kd was 38.4 ± 4.75 nM.

Q: For B8, which Kd is on record?
A: Its Kd is 29 ± 2.8 nM.

Q: Which Kd does the source give for B9 here?
A: The Kd was 44 ± 6 nM.

Q: B10 was tested. Which Kd did it give?
A: Its Kd is 30.6 ± 4.5 nM.

Q: For B11, which Kd is on record?
A: Its Kd is 86 ± 20 nM.

Q: With B12 as the binder, how does the Kd read?
A: The Kd was 25.4 ± 2.4 nM.

Q: Which Kd does the source give for B13 here?
A: Its Kd is 36.4 ± 3.4 nM.

Q: B14 was tested. Which Kd did it give?
A: The Kd was 34.3 ± 4.25 nM.

Q: Which Kd does the source give for B15 here?
A: Its Kd is 58 ± 8.5 nM.

Q: Which Kd does the source give for B16 here?
A: Its Kd is 33 ± 4.5 nM.

Q: How did the Kd turn out when B17 was run?
A: Its Kd is 6.39 ± 0.52 nM.

Q: How did the Kd turn out when B18 was run?
A: The Kd was 10.6 ± 1.25 nM.

Q: For B19, which Kd is on record?
A: The Kd was 100 ± 50 nM.

Q: Which Kd does the source give for B20 here?
A: Its Kd is 4.79 ± 0.35 nM.

Q: For B21, which Kd is on record?
A: The Kd was 65 ± 21.5 nM.

Q: With B22 as the binder, how does the Kd read?
A: Its Kd is 90.5 ± 40.5 nM.

Q: For B23, which Kd is on record?
A: Its Kd is 88 ± 11.5 nM.

Q: For B24, which Kd is on record?
A: The Kd was 76 ± 21.5 nM.

Q: With B25 as the binder, how does the Kd read?
A: The Kd was about 96 nM.

Q: How did the Kd turn out when B26 was run?
A: The Kd was 69.5 ± 16.5 nM.

Q: With B27 as the binder, how does the Kd read?
A: The Kd was 11.5 ± 1.3 nM.

Q: Which Kd does the source give for B28 here?
A: Its Kd is 51.5 ± 5.5 nM.

Q: B29 was tested. Which Kd did it give?
A: Its Kd is 58 ± 9 nM.

Q: Which Kd does the source give for B30 here?
A: The Kd was 9.35 ± 1.15 nM.

Q: Which Kd does the source give for B31 here?
A: Its Kd is 51 ± 20 nM.

Q: With B32 as the binder, how does the Kd read?
A: The Kd was 42.5 ± 10 nM.

Q: With B33 as the binder, how does the Kd read?
A: The Kd was 48 ± 7 nM.

— paper PMC10786891, “Massively parallel profiling of RNA-targeting CRISPR-Cas13d”
